According to patent US20150290315A1:

What was measured:
[1] = target: HVEM stably expressed on B78-H1-A10 cells (UniProt Q92956); assay: cell-based or functional assay
[2] = target: nectin-1 stably expressed on B78-H1-C10 cells (UniProt Q15223); assay: cell-based or functional assay
Sequence of UniProt Q15223 (Q15223 31-517 limits assumed): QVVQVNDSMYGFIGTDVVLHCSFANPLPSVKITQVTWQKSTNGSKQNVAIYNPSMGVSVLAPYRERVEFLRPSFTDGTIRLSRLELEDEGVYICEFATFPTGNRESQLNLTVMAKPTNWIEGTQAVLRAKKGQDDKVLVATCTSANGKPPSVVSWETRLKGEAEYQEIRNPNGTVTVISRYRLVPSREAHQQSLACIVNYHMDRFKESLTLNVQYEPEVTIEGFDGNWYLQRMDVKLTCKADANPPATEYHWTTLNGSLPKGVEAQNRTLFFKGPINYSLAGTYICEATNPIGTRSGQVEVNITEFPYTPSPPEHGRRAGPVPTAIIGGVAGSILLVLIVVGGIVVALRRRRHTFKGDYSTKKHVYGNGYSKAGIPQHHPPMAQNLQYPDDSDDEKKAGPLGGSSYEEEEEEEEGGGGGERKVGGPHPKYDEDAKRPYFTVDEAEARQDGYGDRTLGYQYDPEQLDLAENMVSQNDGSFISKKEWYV

Sequence of UniProt Q92956 (Q92956 39-283 limits assumed): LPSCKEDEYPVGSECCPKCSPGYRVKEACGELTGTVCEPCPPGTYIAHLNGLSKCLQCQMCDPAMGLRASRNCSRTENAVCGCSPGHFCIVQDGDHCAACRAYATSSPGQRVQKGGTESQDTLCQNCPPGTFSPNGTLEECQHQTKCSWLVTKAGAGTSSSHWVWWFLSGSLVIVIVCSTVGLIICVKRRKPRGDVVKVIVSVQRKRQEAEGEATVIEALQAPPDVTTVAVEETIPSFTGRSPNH

HSV-1 strain KOS glycoprotein D with the A3C mutation, as carried by the KOS-gDA3C virus (from UniProt A1Z0Q5 26-394)
entry of virus into A10 cells (plaques counted after citrate wash) [1]: 50 % reduction
entry of virus into C10 cells (plaques counted after citrate wash) [2]: 70 % reduction
